Test results reported in patent publication US20040018971A1 (published 2004).
Each block holds one binder with its values, some of them ahead of it.

How the values were obtained:
[1] = biological target: HLA-B*0702 (human); experiment: competition vs 125I-labeled standard peptide, purified HLA
[2] = biological target: HLA-B*5101 (human); experiment: as above
[3] = biological target: HLA-B*5401 (human); experiment: as above
[4] = biological target: T1, HLA-A*0301 (purified HLA class I molecule) (human); experiment: inhibition of 125I probe peptide binding to purified HLA; ratio to standard peptide
T1 construct: also called A3

[5] = biological target: HLA-A*1101 (purified HLA class I molecule) (human); experiment: as above
[6] = biological target: T2, HLA-A*0201 (human); experiment: competition with 125I-labelled standard peptide 941.01 ([..]) on purified HLA, gel filtration
T2 construct: also called HLA-A2.1

[7] = biological target: HLA-B*5301 (human); experiment: competition vs 125I-labeled standard peptide, purified HLA
[8] = biological target: HLA-A*0301 (human); experiment: inhibition of 125I-labelled standard peptide binding to purified HLA, gel filtration
[9] = biological target: HLA-A*1101 (human); experiment: as above
[10] = biological target: HLA-A*1101 (human); experiment: inhibition of 125I-labelled probe peptide binding to purified HLA-A*1101, gel filtration
[11] = biological target: HLA-B*0702 (human); experiment: competition with 125I probe peptide, purified HLA
[12] = biological target: HLA-B*5101 (human); experiment: competition with 125I probe peptide, purified HLA

B1: Her2/neu.760.F1, 8-mer (peptide)
peptide: FPKANKEI
notes: 8-mer analog of the HER2/neu peptide starting at position 760; same label as the 9-mer in r54
IC50 [1]: 0.16 nM
IC50 [2]: 2500 nM
IC50 [3]: 3120 nM

Binder: CAAGCTGPK (also called Her2/neu.240 (9-mer)) [HER2/neu peptide, position 240, 9 amino acids]
relative binding ratio [4]: 0.0021 ratio (IC50 standard / IC50 test)
relative binding ratio [5]: 0.0021 ratio (IC50 standard / IC50 test)

B2: Her2/neu.642.F1I10 (peptide)
peptide: FPAEQRASPI
notes: 10-mer analog of the HER2/neu peptide starting at position 642
IC50 [1]: 3.1 nM
IC50 [2]: 98 nM
IC50 [7]: 4900 nM
IC50 [3]: 56 nM

Binder: GTQRCEKCSK [HER2/neu peptide, position 327, 10 amino acids]
relative binding ratio (IC50 of standard peptide / IC50 of test peptide) [10]: 0.61 relative binding ratio

Binder: GICLTSTVQL (Synthetic peptide) [HER2/neu A02 supermotif peptide, position 787, 10 amino acids]
relative binding ratio [6]: 0.0004 ratio (IC50 of standard peptide / IC50 of test peptide)

Binder: AMPNQAQMR (also called Her2/neu.705 (9-mer)) [HER2/neu peptide, position 705, 9 amino acids]
relative binding ratio [4]: 0.0004 ratio (IC50 standard / IC50 test)
relative binding ratio [5]: 0.0006 ratio (IC50 standard / IC50 test)

Binder: RILKETELR (Synthetic A3 supermotif peptide) [HER2/neu peptide, position 713, 9 amino acids]
relative binding ratio [8]: 0.0007 ratio (IC50 of standard peptide / IC50 of test peptide)
relative binding ratio [9]: 0.0038 ratio (IC50 of standard peptide / IC50 of test peptide)

Binder: HADGGKVPIK [HER2/neu peptide, position 878, 10 amino acids]
relative binding ratio (IC50 of standard peptide / IC50 of test peptide) [10]: 0.0008 relative binding ratio

B3: Her2/neu.649.I9 (peptide)
peptide: SPLTSIISI
notes: 9-mer analog of the HER2/neu peptide starting at position 649
IC50 [1]: 86 nM
IC50 [2]: 275 nM
IC50 [7]: 3440 nM
IC50 [3]: 217 nM

Binder: GVGSPYVSRL (Synthetic peptide) [HER2/neu A02 supermotif peptide, position 776, 10 amino acids]
relative binding ratio [6]: 0.0001 ratio (IC50 of standard peptide / IC50 of test peptide)

B4: Her2/neu.65 (10-mer) (peptide)
peptide: LPTNASLSFL
notes: native HER2/neu peptide from position 65
IC50 [11]: 290 nM
IC50 [12]: 2500 nM

Binder: GASPGGLREL (Synthetic peptide) [HER2/neu A02 supermotif peptide, position 131, 10 amino acids]
relative binding ratio [6]: 0.0001 ratio (IC50 of standard peptide / IC50 of test peptide)

Binder: GMEHLREVR [HER2/neu peptide, position 346, 9 amino acids]
relative binding ratio (IC50 of standard peptide / IC50 of test peptide) [10]: -0.0002 relative binding ratio

Binder: GLPREYVNAR [HER2/neu peptide, position 549, 10 amino acids]
relative binding ratio (IC50 of standard peptide / IC50 of test peptide) [10]: 0.0003 relative binding ratio

Binder: GLRELQLRSL (Synthetic peptide) [HER2/neu A02 supermotif peptide, position 136, 10 amino acids]
relative binding ratio [6]: 0.0001 ratio (IC50 of standard peptide / IC50 of test peptide)

Binder: GVVFGILIK (T0001 prints T at residue 673) [HER2/neu peptide, position 668, 9 amino acids]
relative binding ratio (IC50 of standard peptide / IC50 of test peptide) [10]: 0.089 relative binding ratio

Binder: SSEDCQSLTR (Synthetic A3 supermotif peptide) [HER2/neu peptide, position 208, 10 amino acids]
relative binding ratio [8]: -0.0002 ratio (IC50 of standard peptide / IC50 of test peptide)
relative binding ratio [9]: 0.002 ratio (IC50 of standard peptide / IC50 of test peptide)

B5: Her2/neu.706.F1I10 (peptide)
peptide: FPNQAQMRII
notes: 10-mer analog of the HER2/neu peptide starting at position 706
IC50 [1]: 290 nM
IC50 [2]: 76 nM
IC50 [7]: 490 nM
IC50 [3]: 59 nM

B6: Her2/neu.760.F1I9 (peptide)
peptide: FPKANKEII
notes: 9-mer analog of the HER2/neu peptide starting at position 760
IC50 [1]: 8.5 nM
IC50 [2]: 55 nM
IC50 [7]: 7150 nM
IC50 [3]: 39 nM

Continued, values first:

relative binding ratio [6]: 0.0005 ratio (IC50 of standard peptide / IC50 of test peptide)
Binder: GICELHCPAL (Synthetic peptide) [HER2/neu A02 supermotif peptide, position 262, 10 amino acids]

relative binding ratio [6]: 0.0002 ratio (IC50 of standard peptide / IC50 of test peptide)
Binder: GIWIPDGENV (Synthetic peptide) [HER2/neu A02 supermotif peptide, position 737, 10 amino acids]

relative binding ratio [8]: 0.0029 ratio (IC50 of standard peptide / IC50 of test peptide)
relative binding ratio [9]: 0.0005 ratio (IC50 of standard peptide / IC50 of test peptide)
Binder: QVRQVPLQR (Synthetic A3 supermotif peptide) [HER2/neu peptide, position 90, 9 amino acids]

IC50 [11]: 71 nM
IC50 [12]: 5000 nM
Binder: WPDSLPDI (analog peptide) [Her2/neu.415.I8]

relative binding ratio [4]: 0.0003 ratio (IC50 standard / IC50 test)
relative binding ratio [5]: 0.0001 ratio (IC50 standard / IC50 test)
Binder: CLLDHVRENR (also called Her2/neu.805 (10-mer)) [HER2/neu peptide, position 805, 10 amino acids]

relative binding ratio [8]: 0.0004 ratio (IC50 of standard peptide / IC50 of test peptide)
relative binding ratio [9]: 0.0005 ratio (IC50 of standard peptide / IC50 of test peptide)
Binder: TLIDTNRSR (Synthetic A3 supermotif peptide) [HER2/neu peptide, position 182, 9 amino acids]

relative binding ratio [8]: 0.0002 ratio (IC50 of standard peptide / IC50 of test peptide)
relative binding ratio [9]: 0.0001 ratio (IC50 of standard peptide / IC50 of test peptide)
Binder: PLQRLRIVR (Synthetic A3 supermotif peptide) [HER2/neu peptide, position 95, 9 amino acids]

relative binding ratio [8]: 0.0003 ratio (IC50 of standard peptide / IC50 of test peptide)
relative binding ratio [9]: 0.0001 ratio (IC50 of standard peptide / IC50 of test peptide)
Binder: PTHDPSPLQR [HER2/neu peptide, position 1102, 10 amino acids]

relative binding ratio [6]: 0.003 ratio (IC50 of standard peptide / IC50 of test peptide)
Binder: GAYSLTLQGL (Synthetic peptide) [HER2/neu A02 supermotif peptide, position 439, 10 amino acids]

relative binding ratio [8]: 0.0033 ratio (IC50 of standard peptide / IC50 of test peptide)
relative binding ratio [9]: 0.0007 ratio (IC50 of standard peptide / IC50 of test peptide)
Binder: VLIAHNQVR (Synthetic A3 supermotif peptide) [HER2/neu peptide, position 84, 9 amino acids]
